Measurements taken from patent US12139520B2 (priority 2020, dated 2024).
Numbered stars: 1 amine (or outer) side, 2 acyl side, 3 side chain; on linkers, the order of the positions; unused ones are H or OH. Bridge positions count the residues as written; N and C are the ends. Square brackets hold non-standard residues; d marks the D form. Side chains are listed from the residue outwards. Ends that are not written are not given here. * marks the point of attachment. C20 diacid = O=C(O)CCCCCCCCCCCCCCCCCCC(=O)*; γGlu = O=C(O)[C@H](CCC(=O)[*:2])N[*:1]; Hyp = O=C(O)[C@@H]1C[C@@H](O)CN1; Trx = NC[C@H]1CC[C@H](C(=O)O)CC1; AEEA = NCCOCCOCC(=O)O; Aib = CC(C)(N)C(=O)O

T1: hAMY3R (human, UniProt P30988)
T1 sequence 1: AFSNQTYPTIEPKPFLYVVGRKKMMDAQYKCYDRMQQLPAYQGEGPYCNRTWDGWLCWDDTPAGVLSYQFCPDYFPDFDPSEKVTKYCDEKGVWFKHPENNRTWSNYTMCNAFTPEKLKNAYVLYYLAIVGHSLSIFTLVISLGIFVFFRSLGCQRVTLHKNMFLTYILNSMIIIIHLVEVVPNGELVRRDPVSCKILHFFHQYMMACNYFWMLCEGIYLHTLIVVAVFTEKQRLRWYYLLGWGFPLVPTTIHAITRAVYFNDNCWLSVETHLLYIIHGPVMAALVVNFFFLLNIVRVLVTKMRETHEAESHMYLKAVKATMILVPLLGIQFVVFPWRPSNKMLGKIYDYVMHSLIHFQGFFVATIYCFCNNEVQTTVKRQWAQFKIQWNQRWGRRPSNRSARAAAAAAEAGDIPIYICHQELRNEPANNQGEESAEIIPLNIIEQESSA
T1 sequence 2: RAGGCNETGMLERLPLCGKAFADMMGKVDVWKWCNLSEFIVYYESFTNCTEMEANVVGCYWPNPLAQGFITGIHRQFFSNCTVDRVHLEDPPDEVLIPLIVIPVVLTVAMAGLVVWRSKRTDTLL


What was measured:
[1] = biological target: hAM1R (human, UniProt Q16602); assay: cell-based or functional assay
[2] = biological target: T1, hAMY3R; assay: cell-based or functional assay

| hAM1R EC50 (cAMP) [1] | hAMY3R EC50 (cAMP) [2] | Binder |
| --- | --- | --- |
| 2980 nM | 0.024 nM | GCRTGTCTVQRLAHQIYQFTDKDKDNVAPRTNIGPQG[Hyp]-NH2 (disulfide 2-7 (inferred); ends not checked) [SEQ ID NO: 118] |
| > 5000 nM | 0.025 nM | {C20 diacid-γGlu}-KCNTATCTVQRLAHQIAQFTDKDKDPVAPPTNVGSNS[Hyp]-NH2 (disulfide 2-7 (inferred); ends not checked) [SEQ ID NO: 120] |
| > 5000 nM | 0.022 nM | KCNTATCTVQRLAHQIYQATDKDKDNVAPPTNVGSNG[Hyp]-NH2 (disulfide 2-7 (inferred); ends not checked) [SEQ ID NO: 114] |
| 2980 nM | 0.032 nM | GCRFGTCTVQRLAHQIYQFTDKDKDNVAPRTKVSPNG[Hyp]-NH2 (disulfide 2-7 (inferred); ends not checked) [SEQ ID NO: 134] |
| 51.6 nM | 0.024 nM | GCRFGTCTVQRLAHFLYQFTDKDKDNVAPRTKVGSNGY [SEQ ID NO: 117] |
| 2980 nM | 0.026 nM | GCRTGTCTVQRLAHQIYQFTDKDKDNVAPRSNVGPQG[Hyp]-NH2 (disulfide 2-7 (inferred); ends not checked) [SEQ ID NO: 121] |
| 107 nM | 0.028 nM | GCRFGTCTVQRLAHQIYQFTDKDKDNVAPRSKIGPQG[Hyp]-NH2 (disulfide 2-7 (inferred); ends not checked) [SEQ ID NO: 127] |
| 2980 nM | 0.027 nM | GCRFGTCTVQRLAHQIYQFTDKDKDNVAPRTNVSPQG[Hyp]-NH2 (disulfide 2-7 (inferred); ends not checked) [SEQ ID NO: 125] |
| > 5000 nM | 0.027 nM | {C20 diacid-Trx-γGlu-AEEA-AEEA}-KCNTATCTVQRLAEQIYQFTDKDKDNVAPPTNVGSNG[Hyp]-NH2 (disulfide 2-7 (inferred); ends not checked) [SEQ ID NO: 126] |
| > 5000 nM | 0.007 nM | KCNTATCTVQRLAHAIYQFTDKDKDNVAPPTNVGSNG[Hyp]-NH2 (disulfide 2-7 (inferred); ends not checked) [SEQ ID NO: 13] |
| 130 nM | 0.023 nM | GCRTGTCTVQRLAHQIYQFTDKDKDNVAPRTKIGPNG[Hyp]-NH2 (disulfide 2-7 (inferred); ends not checked) [SEQ ID NO: 115] |
| > 5000 nM | 0.03 nM | {C20 diacid-γGlu}-KCNTATCTVDRLAHQIAQFTDKDKDPVAPPTNVGSNG[Hyp]-NH2 (disulfide 2-7 (inferred); ends not checked) [SEQ ID NO: 130] |
| > 5000 nM | 0.018 nM | {C20 diacid-γGlu}-KCNTATCTVQRLAEQIYQFTAKDKDNVAPPTNVGSNG[Hyp]-NH2 (disulfide 2-7 (inferred); ends not checked) [SEQ ID NO: 106] |
| > 5000 nM | 0.018 nM | {C20 diacid-γGlu}-KCNTATCTVQRLAHQIAQFADKDKDNVAPPTNVGSNG[Hyp]-NH2 (disulfide 2-7 (inferred); ends not checked) [SEQ ID NO: 105] |
| 2980 nM | 0.031 nM | GCRFGTCTVQRLAHQIYQFTDKDKDNVAPRTKVSPQG[Hyp]-NH2 (disulfide 2-7 (inferred); ends not checked) [SEQ ID NO: 132] |
| > 5000 nM | 0.024 nM | {C20 diacid-γGlu}-KCNT[Aib]TCTVQRLAHQIYQFTDKDKDNVAPPTNVGSNG[Hyp]-NH2 (disulfide 2-7 (inferred); ends not checked) [SEQ ID NO: 119] |
| > 5000 nM | 0.019 nM | {C20 diacid-γGlu}-KCNTATCTVQRLAEQIYQFTDKDKANVAPPTNVGSNG[Hyp]-NH2 (disulfide 2-7 (inferred); ends not checked) [SEQ ID NO: 108] |

| hAM1R EC50 (cAMP) [1] | hAMY3R EC50 (cAMP) [2] | Binder |
| --- | --- | --- |
| > 5000 nM | 0.007 nM | KCNTATCTVQRLAEQIYQFTDKDKDNK([AEEA-AEEA-γGlu-C20 diacid])APPTNVGSNG[Hyp]-NH2 (disulfide 2-7 (inferred); ends not checked) [SEQ ID NO: 12] |
| 2980 nM | 0.02 nM | GCRTGTCTVQRLAHQIYQFTDKDKDNVAPRTNVGPQGY [SEQ ID NO: 109] |
| 367 nM | 0.029 nM | GCRTGTCTVQRLAHQIYQFTDKDKDNVAPRSKVGPQGY [SEQ ID NO: 129] |
| 48.2 nM | 0.024 nM | GCRFGTCTVQRLAHQIYQFTDKDKDNVAPRTNVSPQGY [SEQ ID NO: 116] |
| 33.8 nM | 0.031 nM | GCRFGTCTVQRLAHQIYQFTDKDKDNVAPRSNVSPQGY [SEQ ID NO: 131] |
| 2980 nM | 0.021 nM | GCRFGTCTVQRLAHQIYQFTDKDKDNVAPRTKIGPQG[Hyp]-NH2 (disulfide 2-7 (inferred); ends not checked) [SEQ ID NO: 111] |
| > 5000 nM | 0.021 nM | {C20 diacid-γGlu}-KCNTATCTVDRLAHQIAQFTDKDKDNVAPPTNVGSNG[Hyp]-NH2 (disulfide 2-7 (inferred); ends not checked) [SEQ ID NO: 112] |
| 34.8 nM | 0.027 nM | GCRFGTCTVQRLAHQIYQFTDKDKDNVAPRTKIGPNG[Hyp]-NH2 (disulfide 2-7 (inferred); ends not checked) [SEQ ID NO: 124] |
| 2980 nM | 0.022 nM | GCRFGTCTVQRLAHQIYQFTDKDKDNVAPRTKISPNG[Hyp]-NH2 (disulfide 2-7 (inferred); ends not checked) [SEQ ID NO: 113] |
| > 5000 nM | 0.026 nM | {C20 diacid-γGlu}-KCNTATCTVQRLAEQIYQFTDKAKDNVAPPTNVGSNG[Hyp]-NH2 (disulfide 2-7 (inferred); ends not checked) [SEQ ID NO: 122] |
| 130 nM | 0.028 nM | KCNTATCATQRLANFLVHSSNNFGAIAPSTKIGPNGY [SEQ ID NO: 128] |
| > 5000 nM | 0.02 nM | {C20 diacid-γGlu}-KCNTATCTVQRLAHQIEQFTDKDKDNVAPPTNVGSNG[Hyp]-NH2 (disulfide 2-7 (inferred); ends not checked) [SEQ ID NO: 110] |
| 647 nM | 0.019 nM | {C20 diacid-γGlu}-KCNTATCTVARLAHQIAQFTDKDKDNVAPPTNVGSNG[Hyp]-NH2 (disulfide 2-7 (inferred); ends not checked) [SEQ ID NO: 107] |
| 31.7 nM | 0.027 nM | GCRFGTCTVQRLAHFLYQFTDKDGAIAPRTKIGSQGY [SEQ ID NO: 123] |
| > 5000 nM | 0.031 nM | {C20 diacid-γGlu}-KCNTATCTVARLAEQIYQFTDKDKDPVAPPTNVGSNG[Hyp]-NH2 (disulfide 2-7 (inferred); ends not checked) [SEQ ID NO: 133] |
| > 5000 nM | 0.007 nM | {C20 diacid-γGlu}-KCNTATCTVQRLAHQINQFTDKDKDNVAPPTNVGSNG[Hyp]-NH2 (disulfide 2-7 (inferred); ends not checked) [SEQ ID NO: 11] |
